Test results: patent US20190322720A1

Experiments:
[1] = biological target: 16C3 antigen (CEACAM5 and/or CEACAM6) on tumor cells; test: flow cytometry, LS174T colorectal cells
[2] = biological target: 16C3 antigen (CEACAM5 and/or CEACAM6) on tumor cells; test: flow cytometry, HT-29 colorectal cells
[3] = biological target: 16C3 antigen (CEACAM5 and/or CEACAM6) on tumor cells; test: flow cytometry, CFPAC-1 pancreatic cells
[4] = biological target: 16C3 antigen (CEACAM5 and/or CEACAM6) on tumor cells; test: flow cytometry, LS174T colorectal cells; remark: listed apart in the source
[5] = biological target: 16C3 antigen (CEACAM5 and/or CEACAM6) on tumor cells; test: rosetting assay, h16C3-coupled beads on CFPAC-1 cells in the presence of 4B6 at 5 µg/ml
[6] = biological target: 16C3 antigen (CEACAM5 and/or CEACAM6) on tumor cells; test: flow cytometry, CFPAC-1 pancreatic cells; remark: listed apart in the source
[7] = biological target: 16C3 antigen (CEACAM5 and/or CEACAM6) on tumor cells; test: rosetting assay, antibody-coupled beads on CFPAC-1 cells
[8] = biological target: 16C3 antigen (CEACAM5 and/or CEACAM6) on tumor cells; test: flow cytometry, HT-29 colorectal cells; remark: listed apart in the source

mean fluorescence intensity [1]: 103 mfi
% Cell Staining [2]: 26.3%
mean fluorescence intensity [2]: 44 mfi
mean fluorescence intensity [3]: 91 mfi
% Cell Staining [4]: 69.4%
mean fluorescence intensity [4]: 103 mfi
Rosetted cells (>8 beads) [5]: 50%
% Cell Staining [6]: 91.8%
mean fluorescence intensity [6]: 91 mfi
Rosetted cells (>8 beads) [7]: 53%
mean fluorescence intensity [8]: 44 mfi
B1: h16C3 (antibody, from a related filing, V domains shown)
VH: QVQLVQSGAEVKKPGASVKVSCKASGYTFTDYAMHWVRQAPGQRLEWMGLISTYSGDTKYNQNFQGRVTMTVDKSASTAYMELSSLRSEDTAVYYCARGDYSGSRYWFAYWGQGTLVTVSS
VL: DIQMTQSPSSLSASVGDRVTITCQASENIYGALNWYQRKPGKSPKLLIYGASNLATGMPSRFSGSGSGTDYTFTISSLQPEDIATYYCQQVLSSPYTFGGGTKLEIKR
